Article PMC12041258
Like-named read-outs stand apart in the source and are kept apart here.

Assays:
[1] = target: C. crescentus DriD DNABD, DriD(1-70) (C. crescentus); assay: MST
[2] = target: C. crescentus DriD(78-327) (C. crescentus); assay: SEC
[3] = target: C. crescentus DriD(78-327) (C. crescentus); assay: SEC; remark: listed apart in the source

Row | Kd [1] [µM] | stoichiometry N [2] | stoichiometry N [3] | Substance
1 | 15 |  |  | His-tag free C. crescentus DriD(78-327) (domain or fragment)
2 |  | 2 | 2 | C. crescentus DriD(78-327) (domain or fragment)
